Reference: paper PMC9927573

Experiments:
[1] = target: Zika virus envelope glycoprotein E, as displayed on recombinant F2A virus-like particles (Zika virus (strain BeH818995)); assay: SDS-PAGE with Western blot; fractions of the two-step chromatographic purification of F2A VLPs (HiTrap Capto Q, then HiScreen Capto Core 700 flow-through); immunoblot of E
[2] = target: Zika virus envelope glycoprotein E, as displayed on recombinant F2A virus-like particles (Zika virus (strain BeH818995)); assay: non-reducing SDS-PAGE with Western blot; cell culture medium of transfected 293T cells, 72 and 96 h posttransfection at 37°C, 20 μg of total protein per sample; nonreducing conditions; E detected with monoclonal 4G2 antibody

Substance “Zika virus envelope glycoprotein E, as displayed on recombinant F2A virus-like particles (natural protein)” has a stoichiometry N [1] of 2 and a stoichiometry N [2] of 2.
